pKd: −log10 of the molar value.

The target of assay [1] is CaM34/110-AEDANS/DAB, human CaM mutant [change]/[change] labeled with donor and acceptor (human) (UniProt P0DP23). Description: fluorescence (FRET) titration of donor-acceptor labeled CaM34/110 with CyaA1-412.
The target in assay [2] is CaM (Homo sapiens, UniProt P0DP23, T111C/T35C). Briefly: biochemical. In kind it is binding.

Chain of CyaA1-412, adenylyl cyclase domain (amino acids 1-412) of CyaA (J7QLC0 1-412): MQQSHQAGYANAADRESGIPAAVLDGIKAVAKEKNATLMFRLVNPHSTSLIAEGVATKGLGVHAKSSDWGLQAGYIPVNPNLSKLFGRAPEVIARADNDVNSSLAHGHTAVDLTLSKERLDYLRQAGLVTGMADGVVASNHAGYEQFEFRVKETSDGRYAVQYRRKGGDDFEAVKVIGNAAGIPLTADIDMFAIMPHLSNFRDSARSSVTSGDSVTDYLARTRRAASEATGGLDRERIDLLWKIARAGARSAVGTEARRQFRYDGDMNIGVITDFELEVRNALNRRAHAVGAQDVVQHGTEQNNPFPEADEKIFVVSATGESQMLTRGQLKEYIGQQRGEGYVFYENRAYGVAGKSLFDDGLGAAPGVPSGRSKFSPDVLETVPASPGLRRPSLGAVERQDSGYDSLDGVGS

In assay [1], “CyaA1-412, adenylyl cyclase domain (amino acids 1-412) of CyaA (from UniProt J7QLC0 1-412) (enzyme)” had a pKd of 5.00.

`CC[C@H](C)[C@H](NC(=O)CNC(=O)[C@H](Cc1ccc(O)cc1)NC(=O)[C@H](CCCCN)NC(=O)[C@@H](NC(=O)[C@H](CC(C)C)NC(=O)[C@H](CC(C)C)NC(=O)[C@H](CC(N)=O)NC(=O)[C@@H](NC(=O)[C@@H](NC(=O)CNC(=O)[C@H](CCCCN)NC(=O)[C@H](CCC(N)=O)NC(=O)[C@H](CCCCN)NC(=O)[C@H](CCC(=O)O)NC(=O)[C@H](CC(C)C)NC(=O)[C@H](CO)NC(=O)[C@@H](N)CC(N)=O)C(C)C)[C@@H](C)O)[C@@H](C)CC)C(=O)N[C@@H](CCC(=O)O)C(=O)O` [helix H peptide]: the pKd in assay [2] was 5.06.

Broadly, the pKd is the negative decadic logarithm of the Kd, by convention in mol/L. The low end stands for a high Kd, the high end for a low Kd.

Source of the values: patent US7462472B2 (priority 2001, dated 2008).
